Results as given in article PMC1885262, “Purification and preliminary crystallization of alanine racemase from Streptococcus pneumoniae” (BMC Microbiology, 2007).

What was measured:
[1] = substrate: C[C@@H](N)C(=O)O; test: alanine racemase photometric assay; type: biochemical, Streptococcus pneumoniae; details: 23°C, D- to L-alanine direction
[2] = substrate: C[C@H](N)C(=O)O; test: alanine racemase photometric assay; type: biochemical, Streptococcus pneumoniae; details: 23°C, L- to D-alanine direction

B1: AlrSP (alanine racemase from S. pneumoniae) (Streptococcus pneumoniae R6) (protein)
chain: MKASPHRPTKALIHLGAIRQNIQQMGAHIPQGTLKLAVVKANAYGHGAVAVAKAIQDDVDGFCVSNIDEAIELRQAGLSKPILILGVSEIEAVALAKEYDFTLTVAGLEWIQALLDKEVDLTGLTVHLKIDSGMGRIGFREASEVEQAQDLLQQHGVCVEGIFTHFATADEESDDYFNAQLERFKTILASMKEVPELVHASNSATTLWHVETIFNAVRMGDAMYGLNPSGAVLDLPYDLIPALTLESALVHVKTVPAGACMGYGATYQADSEQVIATVPIGYADGWTRDMQNFSVLVDGQACPIVGRVSMDQITIRLPKLYPLGTKVTLIGSNGDKEITATQVATYRVTINYEVVCLLSDRIPREYY
notes: full length, 367 residues, 39854 Da, homodimer (~80 kDa by gel filtration); pET17-alrSP (NdeI/BamHI) in E. coli BL21(DE3) pLysS; no tag mentioned
With B1 as the protein, how does the Km [1] read?
Its Km is 2100 µM.

And the Km [2]?
Its Km is 1920 µM.
